Positions of bridges follow the written chain, without caps; N, C: chain ends. Non-standard residues stand in square brackets, D forms with d. No end group written: not given here. S5 = C=CCCC[C@](C)(N)C(=O)O; βAla = NCCC(=O)O
Tested on: Hela cells
Test: Confocal microscopy of Hela cells treated with FITC-conjugated SID-series peptides
Type: cell-based
Conditions: FITC-conjugated peptide, 10 μM, 6 hours, 37° C.
Protocol: HeLa cells were grown on chamber slides overnight. 10 mM FITC-SID peptides in DMSO stock solutions were diluted in cell media to a final concentration of 10 μM, along with a 10 μM DMSO control. Cells were incubated in peptide/vehicle solutions at 37° C. for 6 hours, then washed thoroughly with media and PBS, and fixed with 4% paraformaldehyde. Slides were stained with Vectashield™ Hardset with DAPI. Images were taken with a Zeiss 710 confocal microscope.

Row | Substance | cellular penetration
1 | βAla-VRRRI*MLL*AANYLER ([βAla]VRRRI[S5]MLL[S5]AANYLER; staple 7-11) [SID2] | robust cellular penetration
2 | βAla-VRRRIQMLLEAANK*ERR*R ([βAla]VRRRIQMLLEAANK[S5]ERR[S5]R; staple 16-20) [SID5] | robust cellular penetration

Source: patent publication US9163330B2, “Bifunctional stapled polypeptides and uses thereof” (President and Fellows of Harvard College, priority 2009, dated 2015)
